Source: patent US20170349667A1 (ARGEN X B V, published 2017)
Where a chain is given by its changes, count along the chain named. Blank lines part the entries; values can stand above or below the binder they belong to.

How the values were obtained:
[1] = target: T1, human c-Met ECD (aa 25-932) with His tag (human, Glycoprotein. Furin cleavage after residue 307 gives disulfide-linked alpha and beta parts; written here as one chain.); assay: ELISA: 200 ng of recombinant c-Met ECD protein coated, mAb 1 h, HRP goat anti-human antibody, TMB, OD 620 nm
T1 construct: also called human c-Met (WT)
T1 chain: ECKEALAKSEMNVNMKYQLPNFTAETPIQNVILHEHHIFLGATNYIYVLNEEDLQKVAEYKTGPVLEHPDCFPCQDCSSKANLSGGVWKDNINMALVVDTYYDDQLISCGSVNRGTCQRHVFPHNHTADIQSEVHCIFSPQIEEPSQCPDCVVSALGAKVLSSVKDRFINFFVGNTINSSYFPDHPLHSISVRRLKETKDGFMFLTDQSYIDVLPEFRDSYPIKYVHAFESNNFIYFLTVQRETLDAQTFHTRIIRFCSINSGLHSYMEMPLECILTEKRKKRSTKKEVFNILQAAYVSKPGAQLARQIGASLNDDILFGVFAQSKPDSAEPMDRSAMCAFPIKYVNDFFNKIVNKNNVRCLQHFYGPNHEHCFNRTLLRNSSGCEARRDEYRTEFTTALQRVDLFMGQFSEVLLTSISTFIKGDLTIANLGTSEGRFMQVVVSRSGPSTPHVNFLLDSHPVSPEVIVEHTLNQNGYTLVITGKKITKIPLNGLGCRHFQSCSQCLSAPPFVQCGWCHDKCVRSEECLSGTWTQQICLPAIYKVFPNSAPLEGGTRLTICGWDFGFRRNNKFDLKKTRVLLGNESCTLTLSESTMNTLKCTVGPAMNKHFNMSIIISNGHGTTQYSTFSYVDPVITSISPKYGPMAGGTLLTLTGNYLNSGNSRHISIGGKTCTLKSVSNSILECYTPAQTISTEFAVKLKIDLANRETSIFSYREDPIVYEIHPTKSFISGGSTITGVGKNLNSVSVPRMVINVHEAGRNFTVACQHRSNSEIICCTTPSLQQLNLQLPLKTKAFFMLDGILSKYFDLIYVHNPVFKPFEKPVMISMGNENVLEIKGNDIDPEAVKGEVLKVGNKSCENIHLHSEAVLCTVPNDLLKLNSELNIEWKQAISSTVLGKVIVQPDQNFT
Procedure: 200 ng of the different chimeric recombinant cMet proteins were immobilized on maxisorb plates overnight at 4° C. After washing with PBS, the plates were blocked with 0.1% casein for 2 h at RT, before the mAbs were added and allowed to bind to the c-Met for 1 h at RT. After washing, HRP-conjugated goat anti-human antibody (diluted 1/5000, Jackson Labs) was added and incubated for 1 h at RT before additional washing and addition of TMB. The optical density at 620 nm was read and the values were represented in a graph against the concentration of mAbs.

[2] = target: T2, Decoy c-Met (extracellular domain of human c-Met) (human, Glycoprotein. In cells it is cleaved by furin after residue 307 into disulfide-linked alpha and beta parts; written here as one chain.); assay: binding ELISA, human c-Met (Decoy)
T2 construct: construct after Basilico et al. 2008; also called Decoy Met; monomeric Decoy Met
T2 chain: T1 chain

[3] = target: T3, recombinant dimeric c-Met (R&D systems, 358-MT/CF) (human, UniProt P08581 25-932); assay: competition ELISA: recombinant dimeric c-Met captured on the plate, mAb dilutions, then 25 ng/ml N-terminally biotinylated HGF as competitor, strep-HRP, 620 nm; % competition against the controls
T3 construct: bought protein; also called recombinant c-Met; Fc-Met; not shown: C-terminal Fc portion (captured with anti-human Fc) and a His tag (captured with anti-His)
Procedure: Competition with N-terminally biotinylated HGF for binding to immobilized c-Met was performed using an ELISA-based competition assay. Five μg/ml mouse anti-His antibodies (Serotech) was immobilized on a maxisorb plate and, after blocking with 1% casein in PBS for 2 h, 100 ng/ml recombinant dimeric c-Met was added and incubated for 1 h at room temperature. After washing, dilutions of the antibodies were added and allowed to bind to the captured c-Met for 30 minutes, before 25 ng/ml N-terminally biotinylated HGF (R&D systems, 294-HGN/CF) was added. Biotinylated HGF was incubated at room temperature for 1 h before washing. Horseradish-conjugated streptavidin (strep-HRP) was added and incubated for an additional hour. TMB was added and the plate read at 620 nm. An isotype control (hIgG1λ) was included as a control as well as murine 5D5 antibody. Competition was expressed as percentage competition as compared to the controls (strep-HRP only or hIgG1λ) and plotted against the concentration of antibodies. An IC₅₀ was calculated using GraphPad Prism (Table 10). Antibodies 13E6 and 20A11 only displaced HGF partially (about 50%), which may be related to the epitope these two mAbs recognize on the c-Met.

[4] = target: human c-Met on cells (MKN-45, A549, HPAF, BxPC3) (human, UniProt P08581 25-1390); assay: cell-based or functional assay
[5] = target: T4, llama-human c-Met chimera L110 (aa608-909) (human; Llama glama); assay: ELISA, mAb coated at 2 µg/ml, chimera added, streptavidin-HRP
T4 construct: label probably LI10
Excerpt: (§1) An ELISA was run to investigate the binding of the mAbs to the different chimeras.

[6] = target: llama-human c-Met chimera LS1 (aa1-98) (Llama glama; human); assay: as above
Excerpt: as §1

[7] = target: T5, llama-human c-Met chimera L111 (aa634-909) (human; Llama glama); assay: as above
T5 construct: label probably LI11
Excerpt: as §1

[8] = target: T6, llama-human c-Met chimera LS5 (aa1-448) (Llama glama; human); assay: as above
T6 construct: as LS1
Excerpt: as §1

[9] = target: T7, llama-human c-Met chimera LS3 (aa1-287) (Llama glama; human); assay: as above
T7 construct: as LS1
Excerpt: as §1

[10] = target: T8, llama-human c-Met chimera LS4 (aa1-348) (Llama glama; human); assay: as above
T8 construct: as LS1
Excerpt: as §1

[11] = target: T9, llama-human c-Met chimera LS2 (aa1-199) (Llama glama; human); assay: as above
T9 construct: as LS1
Excerpt: as §1

[12] = target: T10, llama-human c-Met chimera L19 (aa572-909) (human; Llama glama); assay: as above
T10 construct: label probably LI9
Excerpt: as §1

[13] = target: T11, llama-human c-Met chimera L18 (aa540-909) (human; Llama glama); assay: as above
T11 construct: label probably LI8
Excerpt: as §1

[14] = target: T12, HMet (human c-Met, control of Table 18) (human); assay: ELISA, mAb coated at 2 µg/ml, c-Met added, streptavidin-HRP
T12 chain: T1 chain
Excerpt: as §1

[15] = target: llama-human c-Met chimera LP7*(aa523-909), T737I (human; Llama glama); assay: ELISA, mAb coated at 2 µg/ml, chimera added, streptavidin-HRP
Excerpt: as §1

[16] = target: llama-human c-Met chimera LP6 (aa497-909) (human; Llama glama); assay: as above
Excerpt: as §1

B3: murine 5D5 antibody (antibody, V domains shown)
VH: QVQLQQSGPELVRPGASVKMSCRASGYTFTSYWLHWVKQRPGQGLEWIGMIDPSNSDTRFNPNFKDKATLNVDRSSNTAYMLLSSLTSADSAVYYCATYGSYVSPLDYWGQGTSVTVSS
VL: DIMMSQSPSSLTVSVGEKVTVSCKSSQSLLYTSSQKNYLAWYQQKPGQSPKLLIYWASTRESGVPDRFTGSGSGTDFTLTITSVKADDLAVYYCQQYYAYPWTFGGGTKLEIK
IC50 (read off the curve) [3]: ~700 pM

B4: 20A11 mAb (antibody, human IgG1, V domains shown)
VH: QVQLVESGGGLVQPGGSLRLSCAASGFTFDDYAMSWVRQAPGKGLEWVSAISWNGSSTYYAESMKGRFTISRDNAKNTLYLQMNSLKSEDTAVYYCAKDLIGSHDYWGQGTQVTVSS
VL: QAVLTQPPSVSGTLGKTLTISCAGTSSDVGYGNYVSWYQQLPGTAPKLLIYAVSTRASGIPDRFSGSKSGNTASLTISGLQSEDEADYYCASYRSSNNYAFGAGTKLTVL
notes: human IgG1 constant domains and human C lambda
EC50 [2]: 4300 pM

B6: 38H10 mAb (antibody, human IgG1, V domains shown)
VH: EVQLVQPGVELRNPGASVKVSCKASGYIFTMNSIDWVRQAPGQGLEWMGRIDPEDGGTKYAQKFQGRVTFTADTSTSTAYVELNSLRSEDTAVYYCARVDDYYLGYDYWGQGTQVTVSS
VL: EIVMTQSPSSVTASAGEKVTINCKSSQSVLWRSNQKNYLAWYQQRLGQSPRLLISWASIRESGVPDRFSGSGSTTDFTLTISSFQPEDAAVYYCQQGYSFPYTFGSGTRLEIK
notes: human IgG1 constant domains and human C kappa
antibody-induced proliferation of BxPC3 cells (agonism) [4]: < 20 % of the proliferation obtained with 75 ng/ml HGF
EC50 [2]: 190 pM

B7: 48A2 mAb (antibody, human IgG1, V domains shown)
VH: B6 VH
VL: DIVMTQTPTSVTASAGDKVTINCKSSQSVLFSSNQKNYLAWYQQRLGQSPRLLIYWASIRESGVPDRFSGSGSATDFTLTISNFQPEDAAVYYCQQGYSFPYSFGSGTRLEIR
notes: VL-shuffled variant of 38H10; human IgG1 and C kappa
EC50 [5]: > 0.04 µg/mL
EC50 [6]: 0.031 µg/mL
EC50 [7]: 0.042 µg/mL
EC50 [8]: 0.05 µg/mL
EC50 [9]: 0.05 µg/mL
EC50 [10]: 0.07 µg/mL
EC50 [11]: 0.034 µg/mL
EC50 [12]: > 0.04 µg/mL
EC50 [13]: > 0.04 µg/mL

The remaining binders from weak to strong by EC50 [2], led by results:

EC50 [2]: 420 pM
B2: 12G4 mAb (antibody, human IgG1, V domains shown)
VH: QLQLVESGGGMAQPGGSLKLSCAASGFTFDDYAMTWVRQAPGKGLEWLSTISWNDINTYYAESMKDRFTISRDNAKNTLYLQMNSLESEDTAVYYCAKRRDNYYGTSGEYDYWGQGTQVTVSS
VL: QSALTQPPSVSGTLGKTVTISCAGTSSDIGNYNYVSWYQQLPGTAPKLLIYEVNKRPSGIPDRFSGSKSGNTASLSISGLQSEDEADYYCASYRSSNNVVFGGGTKLTVL
notes: llama VH/V lambda fused to human IgG1 constant domains and human C lambda

EC50 (read off the curve) [1]: ~1000 pM
EC50 [2]: 190 pM
B1: 13E6 mAb (antibody, human IgG1, V domains shown)
VH: QVQLQESGGDLVQPGGSLRLSCAASGFTFDDYVMNWVRQAPGKGLEWISAINWNGGSTYYAESMKGRFTISRDNAKNTLYLQMYSLQSDDTAVYYCVKDTVVSGNGYWGQGTQVTVSS
VL: B2 VL with A3V, N31D, E52D, P57A, S96R, N98D, V99Y, V100A
notes: as for B4

antibody-induced proliferation of BxPC3 cells (agonism) [4]: < 20 % of the proliferation obtained with 75 ng/ml HGF
EC50 [2]: 140 pM
IC50 (read off the curve) [3]: ~70 pM
B5: 40B8 mAb (antibody, human IgG1, V domains shown)
VH: EVQLVQPGAELRNPGASVKVSCKASGYTFTNYVIDWVRQAPGQGLEWMGRIDPENGGTRYAQKFQGRVTFTADTSTSTAYVELSNLRSEDTAVYYCARLEDYELAYDYWGQGTQVTVSS
VL: DIVMTQTPSSVTASAGEKVTINCKSSQSVLLSSNQKNYLAWYQQRLGQSPRLLIYWASTRESGVPDRFSGSGSTTDFTLTISSFQPEDAAVYYCQQGVSFPLTFGQGTKVELK
notes: as for B6

EC50 [14]: 0.06 µg/mL
antibody-induced proliferation of BxPC3 cells (agonism) [4]: < 20 % of the proliferation obtained with 75 ng/ml HGF
EC50 [5]: 0.047 µg/mL
EC50 [15]: 0.055 µg/mL
EC50 [6]: 0.068 µg/mL
EC50 [16]: 0.05 µg/mL
EC50 [7]: 0.045 µg/mL
EC50 [12]: 0.047 µg/mL
EC50 [13]: 0.047 µg/mL
EC50 (read off the curve) [1]: ~600 pM
EC50 [2]: 130 pM
B8: 36C4 mAb (antibody, human IgG1, V domains shown)
VH: QVQLVESGPGLVKPSQTLSLTCAVSGGSITTNYYYWSWIRQSPGKGLEWMGVIAYDGSTDYSPSLKSRTSISRDTSKNQFSLQLSSVTPEDTAVYYCARDVRVIATGWATANALDAWGQGTLVTVSS
VL: QSVLTQPPSVSGSPGKTVTISCAGTSSDVGYGNYVSWYQQLPGTAPKLLIFAVSYRASGIPDRFSGSKSGNTAFLTISGLQSEDEADYYCASYRSSNNAAVFGGGTHLTVL
notes: as for B4
